Reference: article doi:10.1101/2025.05.16.654599 (bioRxiv, 2025)

How the values were obtained:
mNeon PPM1H (human) = mNeon PPM1H (human) (UniProt Q9ULR3); assay: MST; unlabeled Rab titrated (16 serial dilutions) against 100 nM fluorescent mNeon PPM1H form; Monolith NT.115; 30 min in the dark in a reaction buffer; 3 independent measurements with different protein preparations
mNeon PPM1H = biological target: T1, mNeon PPM1H (human, UniProt Q9ULR3 1-514); assay: as above; conditions: both partners purified
T1 construct: PPM1H phosphatase, human, full length; mNeon inserted into loop 1 (residues 115-133) at position 125; mNeon is the fluorophore read in MST; not measured here; also called HisSUMO-mNeon PPM1H; His SUMO mNeon PPM1H; not shown: His-SUMO, N-terminal, cleaved; mNeon, internal (in loop 1 at position 125), kept
T1 sequence (looked up): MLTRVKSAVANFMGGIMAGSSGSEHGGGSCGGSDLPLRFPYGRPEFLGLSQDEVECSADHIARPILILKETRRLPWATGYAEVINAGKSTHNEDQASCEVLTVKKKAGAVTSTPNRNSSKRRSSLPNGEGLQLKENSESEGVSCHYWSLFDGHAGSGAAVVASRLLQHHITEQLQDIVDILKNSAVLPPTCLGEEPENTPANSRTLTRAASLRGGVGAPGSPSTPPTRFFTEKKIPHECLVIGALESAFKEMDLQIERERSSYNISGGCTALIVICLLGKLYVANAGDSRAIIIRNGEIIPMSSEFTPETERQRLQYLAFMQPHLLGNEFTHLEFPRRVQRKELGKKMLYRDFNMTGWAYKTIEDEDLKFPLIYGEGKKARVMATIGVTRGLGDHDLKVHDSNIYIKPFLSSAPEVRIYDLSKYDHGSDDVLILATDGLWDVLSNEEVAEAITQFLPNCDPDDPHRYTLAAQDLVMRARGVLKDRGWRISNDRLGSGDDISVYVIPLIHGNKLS

Rab12 (Q101L) full length (from UniProt Q6IQ22-2 1-244) (natural protein)
Kd (mNeon PPM1H (human)): 7400 nM

B1: His Rab8A (Q67L) full length (natural protein, human, UniProt P61006 1-207, looked up)
chain: MAKTYDYLFKLLLIGDSGVGKTCVLFRFSEDAFNSTFISTIGIDFKIRTIELDGKRIKLQIWDTAGLERFRTITTAYYRGAMGIMLVYDITNEKSFDNIRNWIRNIEEHASADVEKMILGNKCDVNDKRQVSKERGEKLALDYGIKFMETSAKANINVENAFFTLARDIKAKMDKKLEGNSPQGSNQGVKITPDQQKRSSFFRCVLL
notes: Printed both as 'His Rab8A' and 'Rab8A-6XHis'; also called Rab8A-6XHis; non-phosphorylated Rab8A
Kd (mNeon PPM1H): 1400 ± 980 nM

B2: Rab10 (Q68L) full length (natural protein, human, UniProt P61026 1-200, looked up)
chain: MAKKTYDLLFKLLLIGDSGVGKTCVLFRFSDDAFNTTFISTIGIDFKIKTVELQGKKIKLQIWDTAGLERFHTITTSYYRGAMGIMLVYDITNGKSFENISKWLRNIDEHANEDVERMLLGNKCDMDDKRVVPKGKGEQIAREHGIRFFETSAKANINIEKAFLTLAEDILRKTPVKEPNSENVDISSGGGVTGWKSKCC
notes: also called His SUMO Rab10 (Q68L); non-phosphorylated Rab10; not shown: His-SUMO, N-terminal, cleaved
Kd (mNeon PPM1H): 1300 ± 900 nM

B3: thio-phosphorylated Rab8A (natural protein, human, UniProt P61006 1-207, looked up)
chain: B1 chain
modifications: thio-phosphorylated with ATPγS by MST3 kinase (residue not given); fully modified by PhosTag gel
notes: Rab8A GTPase, human, full length, non-prenylated, Q67L, thio-phosphorylated; Removal of His-MST3 before MST is not described for this preparation; also called thio-pRab8A; His pRab8A Q67L; source: E. coli, purified His Rab8A Q67L, then incubated overnight at 4°C with His-MST3 kinase and 2 mM ATPγS
Kd (mNeon PPM1H): 990 ± 630 nM
